Experimental data: publication PMC9352680, “A comprehensive thermodynamic model for RNA binding by the Saccharomyces cerevisiae Pumilio protein PUF4”

T1: PUF4 RNA-binding domain (Saccharomyces cerevisiae, UniProt P25339 537-888)
T1 sequence: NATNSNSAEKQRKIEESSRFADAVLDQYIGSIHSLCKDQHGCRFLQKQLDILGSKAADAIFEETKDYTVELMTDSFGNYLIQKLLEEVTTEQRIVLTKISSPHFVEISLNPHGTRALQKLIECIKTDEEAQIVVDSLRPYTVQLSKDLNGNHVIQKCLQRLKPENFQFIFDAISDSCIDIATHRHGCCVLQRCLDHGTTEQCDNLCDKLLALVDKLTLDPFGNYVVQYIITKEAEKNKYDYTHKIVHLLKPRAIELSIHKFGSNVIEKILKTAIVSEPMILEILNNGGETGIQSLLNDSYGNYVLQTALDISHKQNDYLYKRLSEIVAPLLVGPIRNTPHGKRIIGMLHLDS

B1: Ic_S1_P3E.1_K3.1_C3.1_H3.1_A3.1_[T5A]_[A6C]_F3.1_[T7C]_[A8C]_T3.1 (ssRNA)
RNA: UCUCUUUGUAACCCUCUCUU
B2: Ic_S1_P3E.1_K3.1_C3.1_H3.1_A3.1_[A6C]_F3.1_[T7A]_[A8C]_T3.1 (ssRNA)
RNA: UCUCUUUGUAUCACUCUCUU
B3: Ic_S1_P3E.1_K3.1_C3.1_H3.1_A3.1_[A6T]_F3.1_[T7C]_[A8C]_T3.1 (ssRNA)
RNA: UCUCUUUGUAUUCCUCUCUU
B4: Ic_S1_P3E.1_K3.1_C3.1_H3.1_A3.1_[T5A]_[A6C]_F3.1_[T7C]_[A8T]_T3.1 (ssRNA)
RNA: UCUCUUUGUAACCUUCUCUU
B5: Ic_S1_P3E.1_K3.1_C3.1_H3.1_A3.1_[T5A]_[A6T]_F3.1_[A8T]_T3.1 (ssRNA)
RNA: UCUCUUUGUAAUUUUCUCUU
B6: Ic_S1_P3E.1_K3.1_C3.1_H3.1_A3.1_[A6C]_F3.1_[T7C]_[A8T]_T3.1 (ssRNA)
RNA: UCUCUUUGUAUCCUUCUCUU
B7: Ic_S1_P3E.1_K3.1_C3.1_H3.1_A3.1_[T5A]_[A6T]_F3.1_[T7C]_T3.1 (ssRNA)
RNA: UCUCUUUGUAAUCAUCUCUU
B8: Ic_S1_P3E.1_K3.1_C3.1_H3.1_A3.1_[T5A]_[A6T]_F3.1_[T7A]_T3.1 (ssRNA)
RNA: UCUCUUUGUAAUAAUCUCUU
B9: Ic_S1_P3E.1_K3.1_C3.1_H3.1_A3.1_[A6T]_F3.1_[T7C]_[A8T]_T3.1 (ssRNA)
RNA: UCUCUUUGUAUUCUUCUCUU
B10: Ic_S1_P3E.1_K3.1_C3.1_H3.1_A3.1_[A6C]_F3.1_[T7C]_[A8C]_T3.1 (ssRNA)
RNA: UCUCUUUGUAUCCCUCUCUU
B11: Ic_S1_P3E.1_K3.1_C3.1_H3.1_A3.1_[T5A]_F3.1_[T7C]_[A8T]_T3.1 (ssRNA)
RNA: UCUCUUUGUAAACUUCUCUU
B12: Ic_S1_P3E.1_K3.1_C3.1_H3.1_A3.1_[T5A]_[A6C]_F3.1_[T7G]_[A8G]_T3.1 (ssRNA)
RNA: UCUCUUUGUAACGGUCUCUU
B13: Ic_S1_P3E.1_K3.1_C3.1_H3.1_A3.1_[T5A]_F3.1_[T7C]_[A8C]_T3.1 (ssRNA)
RNA: UCUCUUUGUAAACCUCUCUU
B14: Ic_S1_P3E.1_K3.1_C3.1_H3.1_A3.1_[T5A]_[A6T]_F3.1_[T7C]_[A8G]_T3.1 (ssRNA)
RNA: UCUCUUUGUAAUCGUCUCUU
B15: Ic_S1_P3E.1_K3.1_C3.1_H3.1_A3.1_[T5A]_[A6G]_F3.1_[A8G]_T3.1 (ssRNA)
RNA: UCUCUUUGUAAGUGUCUCUU
B16: Ic_S1_P3E.1_K3.1_C3.1_H3.1_A3.1_[A6G]_F3.1_[T7C]_[A8T]_T3.1 (ssRNA)
RNA: UCUCUUUGUAUGCUUCUCUU
B17: Ic_S1_P3E.1_K3.1_C3.1_H3.1_A3.1_[A6C]_F3.1_[T7G]_[A8C]_T3.1 (ssRNA)
RNA: UCUCUUUGUAUCGCUCUCUU
B18: Ic_S1_P3E.1_K3.1_C3.1_H3.1_A3.1_[T5A]_[A6T]_F3.1_[A8G]_T3.1 (ssRNA)
RNA: UCUCUUUGUAAUUGUCUCUU
B19: Ic_S1_P3E.1_K3.1_C3.1_H3.1_A3.1_[T5A]_[A6T]_F3.1_[A8C]_T3.1 (ssRNA)
RNA: UCUCUUUGUAAUUCUCUCUU
B20: Ic_S1_P3E.1_K3.1_C3.1_H3.1_A3.1_[A6T]_F3.1_[T7A]_[A8T]_T3.1 (ssRNA)
RNA: UCUCUUUGUAUUAUUCUCUU
B21: Ic_S1_P4E.1_K4.1_C4.1_H4.1_A4.1_[T5G]_[A6C]_[T7G]_F4.1_[A9G]_T4.1 (ssRNA)
RNA: UCUCUUUGUAGCGUGUCUCUU
B22: Ic_S1_P3E.1_K3.1_C3.1_H3.1_A3.1_[T5A]_[A6C]_F3.1_[A8G]_T3.1 (ssRNA)
RNA: UCUCUUUGUAACUGUCUCUU
B23: Ic_S1_P3E.1_K3.1_C3.1_H3.1_A3.1_[T5A]_[A6T]_F3.1_[T7C]_[A8C]_T3.1 (ssRNA)
RNA: UCUCUUUGUAAUCCUCUCUU
B24: Ic_S1_P3E.1_K3.1_C3.1_H3.1_A3.1_[A6G]_F3.1_[T7C]_[A8C]_T3.1 (ssRNA)
RNA: UCUCUUUGUAUGCCUCUCUU
B25: Ic_S1_P3E.1_K3.1_C3.1_H3.1_A3.1_F3.1_[T7G]_[A8C]_T3.1 (ssRNA)
RNA: UCUCUUUGUAUAGCUCUCUU
B26: Ic_S1_P3E.1_K3.1_C3.1_H3.1_A3.1_[T5A]_F3.1_[T7A]_[A8G]_T3.1 (ssRNA)
RNA: UCUCUUUGUAAAAGUCUCUU
B27: Ic_S1_P3E.1_K3.1_C3.1_H3.1_A3.1_[A6T]_F3.1_[T7G]_[A8G]_T3.1 (ssRNA)
RNA: UCUCUUUGUAUUGGUCUCUU
B28: Ic_S1_P3E.1_K3.1_C3.1_H3.1_A3.1_[T5A]_[A6C]_F3.1_[T7C]_T3.1 (ssRNA)
RNA: UCUCUUUGUAACCAUCUCUU
B29: Ic_S1_P3E.1_K3.1_C3.1_H3.1_A3.1_[T5A]_[A6T]_F3.1_[T7A]_[A8C]_T3.1 (ssRNA)
RNA: UCUCUUUGUAAUACUCUCUU
B30: Ic_S1_P3E.1_K3.1_C3.1_H3.1_A3.1_[T5A]_F3.1_[T7G]_[A8T]_T3.1 (ssRNA)
RNA: UCUCUUUGUAAAGUUCUCUU
B31: Ic_S1_P3E.1_K3.1_C3.1_H3.1_A3.1_[T5A]_[A6G]_F3.1_[A8T]_T3.1 (ssRNA)
RNA: UCUCUUUGUAAGUUUCUCUU
B32: Ic_S1_P3E.1_K3.1_C3.1_H3.1_A3.1_[T5A]_F3.1_[T7G]_[A8C]_T3.1 (ssRNA)
RNA: UCUCUUUGUAAAGCUCUCUU

Each binder was assayed against T1, PUF4 RNA-binding domain (assay: Mg; RNA-MaP; 20 mM Na-HEPES pH 7.4, 30 mM KOAc, 0.75 mM MgCl2, 0.1% Tween-20, 5% glycerol, 0.1 mg/mL BSA, 2 mM DTT; 25 C; 0.0125-409.6 nM protein). Conditions: tags: N-His6-TEV cleaved; C-SNAP kept, Cy3B-labelled; label: tethered on chip by stalled RNA polymerase.

Binder | Kd [nM]
B1 | 975
B2 | 127
B3 | 113
B4 | 81
B5 | 34
B6 | 39.8
B7 | 758
B8 | 146
B9 | 32.5
B10 | 531
B11 | 24
B12 | > 2300
B13 | 568
B14 | 867
B15 | 1820
B16 | 434

Binder | Kd [nM]
B17 | 859
B18 | 352
B19 | 477
B20 | 14.5
B21 | 2000
B22 | 389
B23 | 812
B24 | 1720
B25 | 82.1
B26 | 822
B27 | 1360
B28 | 959
B29 | 560
B30 | 135
B31 | 709
B32 | 1000
